# B1: VRDN-1100 (antibody, V domains shown)
# VH: QVQLVQSGAEVVKPGASVKLSCKASGYTFTSYWMHWVKQRPGQGLEWIGEINPSNGRTNYNQKFQGKATLTVDKSSSTAYMQLSSLTSEDSAVYYFARGRPDYYGSSKWYFDVWGQGTTVTVSS
# VL: DVVMTQTPLSLPVSLGDPASISCRSSQSIVHSNVNTYLEWYLQKPGQSPRLLIYKVSNRFSGVPDRFSGSGAGTDFTLRISRVEAEDLGIYYCFQGSHVPPTFGGGTKLEIKR
# Target: recombinant IGF-1R extracellular domain (ECD) (UniProt P08069)
# Assay: SPR; antibody captured by immobilized anti-Fc, IGF-1R-ECD as analyte, global fit to single site model
Molecule,Kd,koff,kon
teprotumumab (antibody),2.2 nM,0.00039 s⁻¹,180000 M⁻¹ s⁻¹
B1,0.57 nM,5.1e-05 s⁻¹,88000 M⁻¹ s⁻¹
